Values of other authors in article PMC6235721.

Molecular target: FabI (Escherichia coli) (UniProt P0AEK4)
UniProt P0AEK4, sequence (P0AEK4 2-262): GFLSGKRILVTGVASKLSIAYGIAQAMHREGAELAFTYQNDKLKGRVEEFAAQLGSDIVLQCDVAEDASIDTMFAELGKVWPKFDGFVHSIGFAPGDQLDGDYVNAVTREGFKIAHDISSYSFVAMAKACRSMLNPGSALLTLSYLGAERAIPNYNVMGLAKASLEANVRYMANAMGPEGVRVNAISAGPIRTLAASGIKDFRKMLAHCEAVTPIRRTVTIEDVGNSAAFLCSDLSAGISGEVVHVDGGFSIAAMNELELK

Substance: crypto-58-AcpP (from UniProt P0A6A8)
- Kd: 712 nM
